Substrate: [H][C@@]12COP(=O)(O)O[C@@]1([H])[C@@H](O)[C@H](n1cnc3c(=O)[nH]c(N)nc31)O2
Test: cyclic nucleotide phosphodiesterase assay kit
Format: biochemical, Drosophila melanogaster

B1: Prune (Pn) (Drosophila melanogaster) (protein)
chain: MCFLRFLAQARGTLGRHLAEASPVAWAAAPDVSGRKLHLVMGNESCDLDSAVSAVTLAFVYAQRHREHDYVPILNIPRRDYPLKTEVGHLFVKCGIAEPVLLFRDDIPREVVQDVNVILVDHHVSPLAPNVTEILDHRPLEDSSPSFKQLPTLCQLDIDASVGSCATLVAQRYLAEDQPRSTSVAQLLHATIVLDTINFAPAAKRYGPKDEAMVQKLESELNRKDAQRSSLFDELVAARADISKLTLTEVLRKDMKVLQTDRQVVPLAGMPILVRDFVEKSGAEKAVREFGVESNLLVILGMYVSPADGQVQRDLALISLSGQGQFVQRVQQALMESNDPKLELRPHEVDTRFMGGCFLRQHNVQATRKHILPIVKRALLEWEADHACDCDEVYFFKEKPQLGLS
Question: How did the Km turn out when B1 was run?
Answer: Its Km is 17.97 ± 10.78 µM.

Question: And the kcat?
Answer: Its kcat is 0.00123 ± 0.00014 s⁻¹.
